We go through three molecules from PMC11220700, “Activation and Purification of ß‐Glucocerebrosidase by Exploiting its Transporter LIMP‐2 – Implications for Novel Treatment Strategies in Gaucher's and Parkinson's Disease” (Advanced Science, 2024).

The test system of data set [1] is GCase variants in HEK 293T cell lysates. The experiment in a line: GCase activity in cell lysates of cells overexpressing GCase variants. It is filed as cell-based, human. The conditions noted are these: 4MU; for GCase activity compared with mock: cell lysates, N370S n = 3, L444P n = 5. The protocol: HEK 293T cells (Leibniz Institute DSMZ‐German Collection of Microorganism and Cell Cultures GmbH, Braunschweig, Germany) were cultured on TC dishes (Sarstedt, Nümbrecht, Germany, #83.3902, #83.3903) in Dulbecco's modified eagle medium (DMEM, Gibco, Carlsbad, CA, United States) supplemented with 10% fetal calf serum (FCS, PANbiotech, Aidenbach, Germany) and 1× penicillin/streptomycin (Sigma‐Aldrich, St. Louis, MO, United States, #P0781) at 37 °C, 5% CO2 and 95% humidity. Passaging was done at 70–90% confluence by detaching with trypsin (PAN‐Biotech, Aidenbach, Germany, #P10‐023100) for 5 min and transferring part of the culture to a new dish containing fresh medium. The HEK 293T cells were transfected using PEI at 60–70% confluence. For a 10 cm TC dish, the transfection mix was prepared by adding 5 µg plasmid DNA, 15 µg of PEI (ratio of 1:3 DNA to PEI) to 300 µl DMEM without FCS. After incubation for 25 min at room temperature, the mix was added to the cells. If the cell supernatant was analyzed, the cells were washed twice with phosphate‐buffered saline (PBS, Gibco, Carlsbad, CA, United States) and the medium was changed to DMEM without FCS 16 h after transfection.
Harvested cells were washed three times with cold PBS and pelleted (1.000 × g, 3 min, 4 °C). […] Protein concentrations were determined using Pierce BCA Protein Assay Kit (ThermoFisher Scientific Inc., Waltham, MA, United States, #23 227).
Activity of GCase‐containing samples (recombinant protein, cell lysate, LE fractions, conditioned culture medium) was measured using the synthetic substrate 4‐methylumbelliferyl‐β‐D‐glucopyranoside (4MU, Merck Millipore, Billerica, MA, United States, #M3633). […] GCase activity was quantified via fluorescence of released 4‐methylumbelliferone (endpoint measurement) using an Infinite 200 Pro (TECAN, Männedorf, Switzerland), SpectraMax Gemini (Molecular Devices, San José, CA, United States) or ClarioStar (BMG LABTECH, Ortenberg, Germany) multiplate reader (λ ex: 365 nm; λ em: 445 nm). […]

Another data set has as its system GCase variants. To be noted: cited from earlier work. An excerpt: The link between GCase and PD was first established when studies found an increased prevalence of PD in GD patients and their relatives.^[ [14], [15], [16] ^] […] All three variants are characterized by compromised stability and/or enzyme activity. The L444P variant ...

Residue numbers refer to the chain shown, from its start. Names may count otherwise.

B1: E326K: PD‐associated GCase variant (protein)
chain: ARPCIPKSFGYSSVVCVCNATYCDSFDPPTFPALGTFSRYESTRSGRRMELSMGPIQANHTGTGLLLTLQPEQKFQKVKGFGGAMTDAAALNILALSPPAQNLLLKSYFSEEGIGYNIIRVPMASCDFSIRTYTYADTPDDFQLHNFSLPEEDTKLKIPLIHRALQLAQRPVSLLASPWTSPTWLKTNGAVNGKGSLKGQPGDIYHQTWARYFVKFLDAYAEHKLQFWAVTAENEPSAGLLSGYPFQCLGFTPEHQRDFIARDLGPTLANSTHHNVRLLMLDDQRLLLPHWAKVVLTDPEAAKYVHGIAVHWYLDFLAPAKATLGKTHRLFPNTMLFASEACVGSKFWEQSVRLGSWDRGMQYSHSIITNLLYHVVGWTDWNLALNPEGGPNWVRNFVDSPIIVDITKDTFYKQPMFYHLGHFSKFIPEGSQRVGLVASQKNDLDAVALMHPDGSAVVVVLNRSSKDVPLTIKDPAVGFLETISPGYSIHTYLWRRQ
For the molecule B1, in data set [1] (HEK 293T cell lysates, versus wt, n = 5, mean ± SEM), the “residual activity of GCase variant” value worked out at 40.0 ± 2.2%. In addition, the “residual activity of GCase variant (literature)” value in the data set with GCase variants is on record as “≈ 40%”.

B2: N370S: disease‐associated GCase variant (protein)
chain: B1 chain with K326E, N370S
In the case of B2, the “GCase activity compared with mock” value in data set [1] is recorded as “do not differ significantly from the mock”. The “stability and activity of GCase variant (literature)” value with GCase variants was “stable with low residual activity”.

B3: L444P: disease‐associated GCase variant (protein)
chain: B1 chain with K326E, L444P
For the molecule B3, the “GCase activity compared with mock” value in data set [1] was “do not differ significantly from the mock”. Further, in the data set with GCase variants, the “stability and activity of GCase variant (literature)” value is “impaired stability and highly impaired activity”.
